# B1: Mycobacterium CAR (Mycolicibacterium neoaurum VKM Ac-1815D) (protein)
# chain: MFAENLDDQQRLADLYATDPEFAAAAPDPAIADAVAAPEMRLPEIIRTVLTGYAERPALGSRAVQLVTDEATGRTRAELLGHFETITYGQLWDRVRAVTNAWSDTVRPGDRVAILGFGSVDFTVIDIALTQLGAVSVPLQTSATAAALAPIVAETEPALIASDVNHLDDAVTLALESGVATVVVFDQNPAVDDDREAIAAATARLDGQTLATLDEVIAAGAERPDVAIPAQEGDPLSLLIYTSGSTGAPKGAMYPQGKVADIWRPAINSHWDARQGHVPAIVLSFMPMSHVMGRGILYASLASGGVVNFAARADLSTLLEDLALTRPTQLNFVPRVWDMLFQDYQSRAAHGGSEADILADMRTNLLGGRYVSALTGSAPISPELKAWVERLLDLHLVEGYGSTEAGAVFVDGQISRPPVLEYKLVDVPELGYHSTDVPHPRGELLIRSEQLFPGYYKRPEVTASVFDEDGFYRTGDIVAELGPDQVAYIDRRNNVLKLSQGEFVTVSKLEAVFNTAPLVHQIYIYGNSARPYLLAVVVPTDPAATKAEIADALKAAARKADLQSYELPRDFLVETQEFTTENGLLTGIKKLAWPKLKERYGAELEQLYTDLADGQAGELQALRATGADAPVLETVGRAAVALLGAASSDIAPDVHFTDLGGDSLSALTFGNLLADIFDVEVPVSVIVSPTADLASIAAHIETQRSGSGLRPSFASVHGKDATVARAADLTLDKFIDAETLAAAGDLAGPATNVRTVLLTGATGFLGRYLALEWLERMNLVDGKVIALVRARSDAEARARLDATFDTGDPKLVAHYRELADKHLEVLAGDKGEHDLGLDRQTWQRLADTVDLIVDPAALVNHVLPYNELFGPNALGTAELIRVALTTRIKPFVYVSTIGVGAGIEPGRFVEDADIREISATRVLDDSYANGYGASKWAGEVLLREAHEQFGLPVSVFRCDMILADTSYAGQLNLPDMFTRMMLSLVATGIAPKSFNQLDAQGNRQRSHYDGLPVEFIAEAISTLGADVTDGFETYHVMNPHDDGLGLDEFVDWLVDAGHPIRRIDDYQAWFEQFGATLRTLPDRQRQASLLPLLHNYTTPGQPVNGAMAPTDVFRTAVQEAKIGPDKDIPHVSRDVIVKYVTDLQLLGLL
# notes: full-length gene in pET30b(+) (NdeI/XhoI), His-tagged, E. coli BL21(DE3), tag kept; monomer, theoretical 125 kDa; holo form made with Nocardia PPTase (ABI83656.1) and CoA
# Substrate: O=C(O)c1ccccc1
# Experiment: steady-state kinetics of carboxylic acid reduction
# Format: biochemical, Mycolicibacterium neoaurum
# Conditions: His-tagged CAR, holo form after PPTase/CoA treatment; ATP, NADPH, Mg2+ as cofactors; assay pH and temperature for Km not in main text
protein,measurement,value
B1,Km,1750 ± 160 µM
